Test results from article PMC7409301, “Natural Killer Cell Activation Receptor NKp30 Oligomerization Depends on Its N-Glycosylation” (Cancers, 2020).
“And” between values parts separate entries of the source, which are not always exact repeats. Identical values can stand only once.

B1: wild-type B7-H6 extracellular portion (with the odd cysteine Cys212) (domain or fragment, UniProt Q68D85 25-245, looked up)
chain: DLKVEMMAGGTQITPLNDNVTIFCNIFYSQPLNITSMGITWFWKSLTFDKEVKVFEFFGDHQEAFRPGAIVSPWRLKSGDASLRLPGIQLEEAGEYRCEVVVTPLKAQGTVQLEVVASPASRLLLDQVGMKENEDKYMCESSGFYPEAINITWEKQTQKFPHPIEISEDVITGPTIKNMDGTFNVTSCLKLNSSQEDPGTVYQCVVRHASLHTPLRSNFTL
modifications: N-glycosylated; disulfide bridges not linked correctly by mass spectrometry
notes: entire extracellular portion Asp25-Leu245 with two Ig-like domains; source: HEK293 cells, transient transfection, secreted, purified (IMAC, SEC); not shown: three amino acids left after cleavage of the secretion signal, N-terminal, kept
B2: NKp30: Endo F1 (protein)
parent chain: MAWMLLLILIMVHPGSCALWVSQPPEIRTLEGSSAFLPCSFNASQGRLAIGSVTWFRDEVVPGKEVRNGTPEFRGRLAPLASSRFLHDHQAELHIRDVRGHDASIYVCRVEVLGLGVGTGNGTRLVVEKEHPQLGAGTVLLLRAGFYAVSFLSVAVGSTVYYQGKCLTWKGPRRQLPAVVPAPLPPPCGSSAHLLPPVPGG

Key:
[1] = target: the molecule itself; test: AUC; sedimentation velocity of wild-type B7-H6 at 0.5 mg/mL, c(s) distribution
SEC-MALS = conditions: glycan lost; control: glycosylated NKp30_Stalk (HEK293T or HEK293S GnTI−)
[2] = sedimentation velocity AUC; conditions: glycan lost; control: NKp30_Stalk from HEK293S GnTI− (uniform glycans)

Protein | stoichiometry N [1] | oligomerisation (SEC-MALS) | oligomerisation [2]
B1 | 2 and 4 | – | –
B2 | – | abolishes | abolishes
